{
  "source": "patent US20260167712A1",
  "about": "“INHIBITORY ANTIBODIES AGAINST GLUT1” (ICOSAGEN CELL FACTORY OÜ, priority 2022, published 2026)",
  "key": {"[1]": {"target": "T1, HEK-293-ALL cells transfected with human SLC2A1 (Homo sapiens, UniProt P11166)", "T1 construct": "expressed in transfected cells; host or cells: HEK-293-ALL", "T1 sequence (P11166 1-492)": "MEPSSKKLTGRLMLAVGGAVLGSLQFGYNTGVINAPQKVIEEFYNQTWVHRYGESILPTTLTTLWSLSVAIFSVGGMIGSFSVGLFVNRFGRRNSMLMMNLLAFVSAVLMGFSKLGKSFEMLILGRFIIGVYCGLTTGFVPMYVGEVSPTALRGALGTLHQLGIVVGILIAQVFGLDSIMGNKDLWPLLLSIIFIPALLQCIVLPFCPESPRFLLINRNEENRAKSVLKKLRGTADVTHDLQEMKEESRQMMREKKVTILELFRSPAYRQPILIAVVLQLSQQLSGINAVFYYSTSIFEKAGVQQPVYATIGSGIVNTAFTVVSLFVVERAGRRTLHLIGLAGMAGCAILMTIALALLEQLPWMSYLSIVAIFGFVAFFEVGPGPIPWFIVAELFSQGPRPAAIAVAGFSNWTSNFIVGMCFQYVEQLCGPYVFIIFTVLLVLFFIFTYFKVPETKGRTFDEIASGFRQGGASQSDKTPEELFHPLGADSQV", "assay": "2-Deoxyglucose uptake assay (Glucose Uptake-Glo)", "format": "cell-based", "details": "2-hour incubation, 0.35 nM to 6.89 μM, 1 mM 2DG for 20 min, FIG. 4", "method": "To evaluate if the described anti-SLC2A1 antibodies inhibit glucose uptake, a commercial Glucose Uptake-Glo Assay kit (Promega) was utilized according to manufacturer's instructions. In short, HEK-293-ALL cells were transfected with human SLC2A1 expression plasmid and were incubated at 37° C. overnight in the presence of 5% CO2. Cells were washed with 0.5% BSA PBS twice and 7000 cells were plated per well into white clear bottom 96-well plates in 0.5% BSA PBS in the presence of 0.35 nM to 6.89 μM anti-SLC2A1 antibodies or glucose uptake inhibitor BAY-876 (CaymanChem). Cells were incubated for 2 hours at room temperature. Glucose uptake was initiated by the addition of 1 mM 2-deoxyglucose (2DG) and was allowed to proceed for 20 min at 37° C. in the presence of 5% CO2. After adding STOP and neutralization reagents included in the kit, luminescence was measured using GloMax Explorer microplate reader (Promega). Nonspecific luminescence was measured in lysates from cells without (2DG) being added. Data was normalized to nonspecific luminescence and to the average value of luminescence in the presence of no inhibitors."}, "MCF7 breast cancer cells": {"system": "MCF7 breast cancer cells", "assay": "Cell proliferation inhibition assay (Incucyte), MCF7", "format": "cell-based", "details": "for MCF7 cell growth (confluence), single agent: alone, Incucyte; for MCF7 cell growth in combination with phenformin: co-treatment with phenformin, FIGS. 7 and 9", "method": "(§1) Incucyte S3 Live cell analysis instrument and Cell-by-Cell analysis software module (Sartorius) were used to evaluate the effect of anti-SLC2A1 antibodies on cancer cell proliferation label-free (FIGS. 5-11). MCF7, PC3 or PANC1 or MIAPACA2 cells were plated on flat bottom tissue culture 96-well plate in […] medium (Ximbio) supplemented with 2.5% FBS. Cells were incubated overnight and 0.02 nM to 13 μM anti-SLC2A1 antibodies, anti-HEL isotype control, PBS or BAY-876 were added to the cells alone or in combination with metformin (CaymanChem), phenformin (Sigma Aldrich) or IACS-010759 (CaymanChem). Cell confluence or object count was measured for 24 to 96 hours with Incucyte S3 and normalized to timepoint 0 h or 4h. anti-SLC2A1 antibodies inhibit cancer cell proliferation alone and especially in combination with complex-I inhibitors metformin, phenformin and IACS-010759. Exemplary antibodies 1G2 #9, 2A2 #12, 2E5 #22, 5G5 #30, 6F12 #33, 7C3 #39 and R14 #54 were used in proliferation assays."}, "[2]": {"system": "PC3 prostate cancer cell line", "assay": "Cell proliferation inhibition assay (Incucyte), PC3", "format": "cell-based", "details": "alone, FIG. 11", "method": "as §1"}, "[3]": {"system": "MIAPACA2 pancreatic cancer cell line", "assay": "Cell proliferation inhibition assay (Incucyte), MIAPACA2", "format": "cell-based", "details": "alone, FIG. 11", "method": "as §1"}, "SLC2A1 pseudotyped VLPs [4]": {"target": "T2, SLC2A1 pseudotyped VLPs (Homo sapiens, UniProt P11166)", "T2 sequence (P11166 1-492)": "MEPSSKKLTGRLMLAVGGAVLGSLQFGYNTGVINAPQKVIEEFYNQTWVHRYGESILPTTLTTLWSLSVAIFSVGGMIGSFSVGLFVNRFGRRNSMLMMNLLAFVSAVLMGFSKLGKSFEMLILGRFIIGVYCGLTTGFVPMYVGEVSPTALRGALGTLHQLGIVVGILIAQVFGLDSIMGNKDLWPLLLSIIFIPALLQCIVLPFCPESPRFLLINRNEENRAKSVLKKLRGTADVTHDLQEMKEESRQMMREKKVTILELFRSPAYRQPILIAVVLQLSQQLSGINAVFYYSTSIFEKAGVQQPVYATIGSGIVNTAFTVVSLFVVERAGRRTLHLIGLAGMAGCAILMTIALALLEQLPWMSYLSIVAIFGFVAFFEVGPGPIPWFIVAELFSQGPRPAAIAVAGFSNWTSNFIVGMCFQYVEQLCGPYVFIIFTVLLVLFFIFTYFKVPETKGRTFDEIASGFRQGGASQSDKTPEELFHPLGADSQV", "assay": "ELISA-based SLC2A1 VLP binding assay", "details": "5 μg/mL VLP coating, FIG. 1", "method": "An ELISA-based VLP binding assay was carried out to compare the EC50 values of antibody clones (FIG. 1). Similarly, ELISA based VLP binding assay was performed to compare the binding of the antibodies to different glucose transporters (FIG. 3). MaxiSorp™ high-capacity binding ELISA plate (Thermo Fisher Scientific, US) were coated with 5 μg/mL SLC2A1, SLC2A2, SLC2A3, SLC2A4 pseudotyped VLPs or MOCK VLPs in PBS overnight. The plate was washed and blocked for 1 h with 0.05% Tween 20, 2% BSA in PBS. Serial dilutions of antibodies were incubated on a washed plate for 1 hour, followed by a 1-hour incubation with goat anti-human IgG horse radish peroxidase (HRP) conjugated (Invitrogen) antibody. TMB (3,3′,5,5′-Tetramethylbenzidine) Solution VII (Biopanda Diagnostics) was used as a substrate for HRP and 0.5 M H2SO4 was used as stop solution. After every step, the wells were washed with 0.05% Tween 20, 0.1% Proclin 300 PBS solution. Absorption at 450 nm was measured with Thermo Scientific™ Multiskan™ FC Microplate Photometer. Exemplary wise used antibodies 1G2 #9, 2A2 #12, 2E5 #22, 5G5 #30, 6F12 #33, 7C3 #39 all bound SLC2A1 VLPs with low nanomolar EC50 values (FIG. 1)."}, "SLC2A1 pseudotyped VLPs [5]": {"target": "T3, SLC2A1 pseudotyped VLPs (UniProt P11166 1-492)", "T3 chain": "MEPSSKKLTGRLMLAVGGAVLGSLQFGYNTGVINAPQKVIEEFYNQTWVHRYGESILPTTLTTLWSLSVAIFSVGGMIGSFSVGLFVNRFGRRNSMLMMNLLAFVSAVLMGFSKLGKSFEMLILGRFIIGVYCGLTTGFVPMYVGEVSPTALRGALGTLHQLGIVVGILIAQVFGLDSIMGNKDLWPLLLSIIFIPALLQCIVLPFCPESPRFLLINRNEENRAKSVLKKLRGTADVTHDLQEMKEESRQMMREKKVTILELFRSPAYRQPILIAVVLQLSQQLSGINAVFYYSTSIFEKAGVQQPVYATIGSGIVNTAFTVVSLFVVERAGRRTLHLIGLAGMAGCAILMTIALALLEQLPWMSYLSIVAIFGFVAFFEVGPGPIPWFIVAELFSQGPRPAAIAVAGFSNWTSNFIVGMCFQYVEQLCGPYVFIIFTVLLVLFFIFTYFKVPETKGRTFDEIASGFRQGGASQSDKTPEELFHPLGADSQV", "assay": "ELISA"}},
  "note": "Entries after “also recorded” stand apart in the source; their conditions may differ.",
  "data": [
    {"molecule": "Cc1c(NC(=O)c2cc(C(N)=O)nc3cc(F)ccc23)c(C(F)(F)F)nn1Cc1ccc(C#N)cc1", "note": "[BAY-876, reference compound]", "values": [
      {"measurement": "glucose (2-deoxyglucose) uptake", "setting": "[1]", "result": "strong concentration dependent decrease"}
    ]},
    {"molecule": "Cc1nc(-c2nc(-c3ccc(OC(F)(F)F)cc3)no2)nn1Cc1cccc(N2CCC(S(C)(=O)=O)CC2)c1", "note": "[IACS-010759, reference compound]", "values": [
      {"measurement": "MCF7 cell growth (confluence), single agent", "setting": "MCF7 breast cancer cells", "result": "did not influence cell growth"},
      {"measurement": "PC3 cell growth, single agent", "setting": "[2]", "result": "inhibited"},
      {"measurement": "MIAPACA2 cell growth, single agent", "setting": "[3]", "result": "inhibited"}
    ]},
    {"molecule": "CN(C)C(=N)N=C(N)N", "note": "[Metformin, metformin, reference compound]", "values": [
      {"measurement": "MCF7 cell growth (confluence), single agent", "setting": "MCF7 breast cancer cells", "result": "did not influence cell growth"}
    ]},
    {"molecule": "[H]/N=C(/N)N/C(=N/[H])NCCc1ccccc1", "note": "[phenformin, reference compound]", "values": [
      {"measurement": "MCF7 cell growth (confluence), single agent", "setting": "MCF7 breast cancer cells", "result": "did not influence cell growth; also recorded: No growth inhibition"}
    ]},
    {"molecule": "5G5 #30 (antibody, V domains shown) VH: AVTLDESGGGLQTPGGALSLVCKASGFTFSSHAIFWVRQAPDKGLEFVAAISSSSGSWTAYATVVKGRATISRDNGQSTVRLQLNNLRAEDTGTYYCAKAAGSACCYAGSIDAWGHGTEVIVSS VL: ALTQPSSVSANPGETVKITCSGGSGSSYYGWYQQKSPGSAPVTVIYYDDKRPSDIPSRFSGSKSGSTATLTITGVQVEDEAVYYCGTGDGSIAIFGAGTTLTVL", "values": [
      {"measurement": "EC50 of binding to SLC2A1 VLPs", "setting": "SLC2A1 pseudotyped VLPs [4]", "result": "low nanomolar"},
      {"measurement": "MCF7 cell growth in combination with IACS-010759", "setting": "MCF7 breast cancer cells; co-treatment with IACS-010759, FIG. 8", "result": "drastically inhibited"},
      {"measurement": "MCF7 cell growth in combination with metformin", "setting": "MCF7 breast cancer cells; co-treatment with metformin, FIG. 6", "result": "drastically inhibited"},
      {"measurement": "MCF7 cell growth in combination with phenformin", "setting": "MCF7 breast cancer cells", "result": "completely inhibit; also recorded: drastically inhibited; also recorded: most potent growth inhibitors"},
      {"measurement": "EC50", "setting": "SLC2A1 pseudotyped VLPs [5]", "result": 1.2, "unit": "nM"}
    ]},
    {"molecule": "1G2 #9 (antibody, V domains shown) VH: AVTLDESGGGLQTPGGALSLVCKASGFTFSTKGMGWVRQTPGKGLEWVAGISSMRRYTYYAPAVKGRATISRDNGQSTVRLQLSSLRAEDSGTYYCARDATYCSWTTSTCGWSGGTIDAWGHGTEVIVSS VL: ALTQPSSVSANPGETVKITCSGSSGSYGWYQQKSPGSAPVTVIYWDDERPSGIPSRFSGSASGSTATLTITGVQAEDEAVYFCGSIDSSVGYVGIFGAGTTLTVL", "values": [
      {"measurement": "EC50 of binding to SLC2A1 VLPs", "setting": "SLC2A1 pseudotyped VLPs [4]", "result": "low nanomolar"},
      {"measurement": "MCF7 cell growth in combination with phenformin", "setting": "MCF7 breast cancer cells", "result": "No growth inhibition"},
      {"measurement": "EC50", "setting": "SLC2A1 pseudotyped VLPs [5]", "result": 4.1, "unit": "nM"}
    ]},
    {"molecule": "2A2 #12 (antibody, V domains shown) VH: AVTLDESGGGLQTPGGALSLVCKGSGFTFSTKGMMWVRQAPGKGLEWVAGISSMSRYTYYAPAVKGRATISRDNGQSAVRLQLSSLRAEDTGTYYCARDATYCSWTASTCGWSGGTIDAWGHGTEVIVSS VL: ALTQPSSVSANPGETVKITCSGGYSYYGTYYYSWYQQKSPGSAPVTLIYRNDKRPSDIPSRFSGSGSGSTSTLTITGVQAEDEAVYFCGSYDSSDSGIFGAGTTLTVL", "values": [
      {"measurement": "EC50 of binding to SLC2A1 VLPs", "setting": "SLC2A1 pseudotyped VLPs [4]", "result": "low nanomolar"},
      {"measurement": "MCF7 cell growth in combination with phenformin", "setting": "MCF7 breast cancer cells", "result": "No growth inhibition"},
      {"measurement": "EC50", "setting": "SLC2A1 pseudotyped VLPs [5]", "result": 2.9, "unit": "nM"}
    ]},
    {"molecule": "7C3 #39 (antibody, V domains shown) VH: AVTLDESGGGLQTPGGALSLVCKASGFTFSTKGMGWVRQTPGKGLEWVAGISSMRRYTYYAPAVKGRATISRDNGQSTVRLQLSSLRAEDSGTYYCARDATYCSWTTSTCGWSGGTIDAWGHGTEVIVSS VL: ALTQPSSVSANLGGTVKITCSGGGSSSYYGWYQQKSPGSAPVTVIYGNDRRPSDIPSRFSGSASGSTATLTITGVQAEDEAVYFCGSADSSDSGSGIFGAGTTLTVL", "values": [
      {"measurement": "EC50 of binding to SLC2A1 VLPs", "setting": "SLC2A1 pseudotyped VLPs [4]", "result": "low nanomolar"},
      {"measurement": "MCF7 cell growth in combination with phenformin", "setting": "MCF7 breast cancer cells", "result": "completely inhibit; also recorded: most potent growth inhibitors"},
      {"measurement": "EC50", "setting": "SLC2A1 pseudotyped VLPs [5]", "result": 1.4, "unit": "nM"}
    ]}
  ]
}
